Laboratory results from patent US12692524B2, “Sialyltransferases and their use in producing sialylated oligosaccharides” (Chr. Hansen A/S, priority 2017, dated 2026).

Experiments:
[1] = In vitro sialylation of LNT by protein extracts, LST-a/-b quantified by LC-MS/MS; type: biochemical; details: 5 mM LNT, 10 mM CMP-Neu5Ac, 16 hours, LC-MS/MS; relative quantity; n.d.: not detectable
Outline: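 E. coli BL21(DE3) crude extracts overexpressing sialyltransferases (IPTG 0.3 mM, 12–16 h at 30 °C) incubated 16 h with 5 mM LNT and 10 mM CMP-Neu5Ac in 50 mM Tris-HCl pH 7.5, 5 mM MgCl2. LST-a and LST-b measured by HILIC LC-MS/MS, MRM in ESI negative mode, against commercial standards.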

[2] = In vivo screening in E. coli #1363/#1730 with lactose as acceptor, sialyllactose identified by TLC; type: cell-based, Escherichia coli BL21(DE3); details: 1.5 mM lactose, 72 to 96 hours, qualitative via TLC
Outline: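 E. coli BL21(DE3) #1363/#1730 expressing sialyltransferases were grown at 30 °C in mineral salts medium with 2% glucose and induced with 0.3 mM IPTG. After 1 h, 1.5 mM lactose was added, plus 1.5 mM sialic acid for #1730, and incubation ran 72–96 h. Cell lysates were analysed by silica TLC with thymol staining.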

| Molecule | Relative efficacy of sialyltransferases regarding in-vitro production of sialyllacto-N-tetraoses: LST-a [1] | Production of sialyllactose in-vivo [2] |
| --- | --- | --- |
| SiaT34: sialyltransferase of Pasteurella multocida PM70, acc. NC_002663, SEQ ID NO: 6 (protein, listed as Pasteurella multocida) MDKFAEHEIPKAVIVAGNGESLSQIDYRLLPKNYDVFRCNQFYFEERYFLGNKIKAVFFTPGVFLEQYYTLYHLKRNNEYFVDNVILSSFNHPTVDLEKSQKIQALFIDVINGYEKYLSKLTAFDVYLRYKELYENQRITSGVYMCAVAIAMGYTDIYLTGIDFYQASEENYAFDNKKPNIIRLLPDFRKEKTLFSYHSKDIDLEALSFLQQHYHVNFYSISPMSPLSKHFPIPTVEDDCETTFVAPLKENYINDILLPPHFVYEKLGVDKLAAALEHHHHHH | 2.34 × 10^3 | 3′-SL |
| SiaT37: sialyltransferase of Campylobacter jejuni strain 81-176, acc. AAL09368, SEQ ID NO: 16 (protein, listed as Campylobacter jejuni) MKKVIIAGNGPSLKEIDYSRLPNDFDVFRCNQFYFEDKYYLGKKCKAVFYTPNFFFEQYYTLKHLIQNQEYETELIMCSNYNQAHLENENFVKTFYDYFPDAHLGYDFFKQLKEFNAYFKFHEIYFNQRITSGVYMCAVAIALGYKEIYLSGIDFYQNGSSYAFDTKQENLLKLAPDFKNDRSHYIGHSKNTDIKALEFLEKTYKIKLYCLCPNSLLANFIELAPNLNSNFIIQEKNNYTKDILIPSSEAYGKFSKNINFKKIKIKENVYYKLIKDLLRLPSDIKHYFKGK | 40 | 3′-SL |
| SiaT39: sialyltransferase of Alistipes shahii WAL 8301, acc. YP_007816735, SEQ ID NO: 23 (protein, listed as Alistipes shahii) MDDGTPSVSINGGTDFLSLDHLARSGKITVNAPAPWSVTLAPENYGQDEKPDWLTLSAEEGPAGYSEIDVTFAENPGPARSASLLFSCDGKTLAFTVSQSAGGTGFDAPDYYFYISVGTMPTLYSGLHLLSHDKPSYVSYERASTFDAAEFPDRAFVYPVADPTGHATNEELRAMSEAMKRRILEINAEDPTAVFGLWVDDLRCRLGYDWFVAQGIDSARVKVTMLSDGTATYNNFHNYFGDAATAEQNWNDYAAEVEALDWNHGGRYPETRAPEEFASYTWPYYLSTRPDYRLMLQNSSLMESSCPFIADRLAAMKMESVQPYELLTALPEASKQQFYRMAKFDYARFAGLFDLSPKKNLIIIGTSHSSAASEQQQAAYVERIIQQYGSDYDIFFKPHPADSSSAGYPDRFEGLTLLPGQMPFEIFVWALLDKIDMIGGYPSTTFISVPLDKVGFLFAADADGLVRPLNILFRDAANVEWIQ | 4 | 3′-SL |
| SiaT32: sialyltransferase of Alistipes sp. AL-1, acc. WP_032134786, SEQ ID NO: 15 (protein, listed as Alistipes sp.) MALLSGTAACSDDEVSQNLIVINGGEHFLSLDGLARAGKISVLAPAPWRVTKAAGDTWFRLSATEGPAGYSEVELSLDENPGAARSAQLAFACGDAIVPFRLSQGALSAGYDSPDYYFYVTFGTMPTLYAGIHLLSHDKPGYVFYSRSKTFDPAEFPARAEVTTAADRTADATQAEMEAMAREMKRRILEINSADPTAVFGLYVDDLRCRIGYDWFVAQGIDSARVKVSMLSDGTGTYNNFYNYFGDAATAEQNWESYASEVEALDWNHGGRYPETRSLPEFESYTWPYYLSTRPDYRLVVQDGSLLESSCPFITEKLGEMEIESIQPYEMLSALPESSRKRFYDMAGFDYDKFAALFDASPKKNLIIIGTSHADDASARLQRDYVARIMEQYGAQYDVFFKPHPADTTSAGYETEFPGLTLLPGQMPFEIFVWSLIDRVDMIGGYPSTVFLTVPVDKVRFIFAADAASLVRPLNILFRDATDVEWMQ | 64 | 3′-SL, 6′-SL |
